Experimental data as given in article PMC10786891, “Massively parallel profiling of RNA-targeting CRISPR-Cas13d”.

T1: EsCas13d, nuclease-dead (Eubacterium siraeum, UniProt B0MS50, R295A;H300A;R849A;H854A)
T1 sequence: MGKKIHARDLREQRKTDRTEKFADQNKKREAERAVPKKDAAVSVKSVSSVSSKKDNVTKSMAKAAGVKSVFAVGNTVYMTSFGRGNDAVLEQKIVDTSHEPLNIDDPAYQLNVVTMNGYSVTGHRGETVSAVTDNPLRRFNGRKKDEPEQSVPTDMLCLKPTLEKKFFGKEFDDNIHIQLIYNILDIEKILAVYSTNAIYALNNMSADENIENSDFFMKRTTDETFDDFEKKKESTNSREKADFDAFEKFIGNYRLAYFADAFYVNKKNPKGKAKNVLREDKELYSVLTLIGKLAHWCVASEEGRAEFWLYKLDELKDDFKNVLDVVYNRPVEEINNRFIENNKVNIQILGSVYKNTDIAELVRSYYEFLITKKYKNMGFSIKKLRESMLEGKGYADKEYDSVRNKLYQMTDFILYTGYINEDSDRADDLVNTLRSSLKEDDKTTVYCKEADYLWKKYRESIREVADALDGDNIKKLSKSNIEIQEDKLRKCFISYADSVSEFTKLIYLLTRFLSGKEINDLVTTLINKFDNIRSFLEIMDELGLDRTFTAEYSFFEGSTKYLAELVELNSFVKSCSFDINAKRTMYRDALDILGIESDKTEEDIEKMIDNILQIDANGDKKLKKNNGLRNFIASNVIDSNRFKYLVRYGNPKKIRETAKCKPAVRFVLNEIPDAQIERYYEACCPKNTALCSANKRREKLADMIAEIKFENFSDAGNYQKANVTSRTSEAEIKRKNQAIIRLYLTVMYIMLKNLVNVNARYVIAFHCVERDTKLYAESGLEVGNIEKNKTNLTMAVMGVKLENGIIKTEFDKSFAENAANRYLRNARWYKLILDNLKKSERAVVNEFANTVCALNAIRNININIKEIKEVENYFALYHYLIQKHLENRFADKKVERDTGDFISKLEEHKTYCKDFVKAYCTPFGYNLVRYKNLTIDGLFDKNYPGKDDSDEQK


The binders below were run against T1, EsCas13d, nuclease-dead (assay: crRNA (strand 1, pre-loaded); Mg2+; 40 mM Tris-HCl pH 7.5, 150 mM NaCl, 6 mM MgCl2, 1 mM DTT, 0.1% Tween-20, 0.2 mg/ml BSA; 25 C; 10 min per concentration, then washed). Conditions: tags: His6-TwinStrep-SUMO cleaved; N-terminal SNAP kept (SNAP-Surface 488); label: 3' end held by stalled T7 RNA polymerase.

| Binder | Kd [nM] |
| --- | --- |
| target 1 U3A,U10A (mixed) RNA 1: CACCCGUGCAAAAAUGCAGGGGUCUAAAACUGAGCGGAUAACCUCUCUAUGG RNA 2: GGGAAUGGAUCCACAUCUACGAAUUCGUACCAUAGAGAGGUAAUCCGCACACCGAGAUCGGAAGAGCACACGU | 21.2 ± 2.5 |
| target 1 insC 3' of 10,insC 3' of 9 (mixed) RNA 1: CACCCGUGCAAAAAUGCAGGGGUCUAAAACUGAGCGGAUAACCUCUCUAUGG RNA 2: GGGAAUGGAUCCACAUCUACGAAUUCGUACCAUAGAGAGGUUCACUCCGCUCACCGAGAUCGGAAGAGCACACGU | 14.9 ± 0.6 |
| target 1 C4G,A16C (mixed) RNA 1: CACCCGUGCAAAAAUGCAGGGGUCUAAAACUGAGCGGAUAACCUCUCUAUGG RNA 2: GGGAAUGGAUCCACAUCUACGAAUUCGUACCAUAGCGAGGUUAUCCGGUCACCGAGAUCGGAAGAGCACACGU | 39 ± 5 |
| target 1 C7G,U10G (mixed) RNA 1: CACCCGUGCAAAAAUGCAGGGGUCUAAAACUGAGCGGAUAACCUCUCUAUGG RNA 2: GGGAAUGGAUCCACAUCUACGAAUUCGUACCAUAGAGAGGUGAUGCGCUCACCGAGAUCGGAAGAGCACACGU | 20 ± 0.8 |
| target 1 insU 3' of 6,insU 3' of 4 (mixed) RNA 1: CACCCGUGCAAAAAUGCAGGGGUCUAAAACUGAGCGGAUAACCUCUCUAUGG RNA 2: GGGAAUGGAUCCACAUCUACGAAUUCGUACCAUAGAGAGGUUAUCCUGCUUCACCGAGAUCGGAAGAGCACACGU | 10.3 ± 0.8 |
| target 1 G5A,G13C (mixed) RNA 1: CACCCGUGCAAAAAUGCAGGGGUCUAAAACUGAGCGGAUAACCUCUCUAUGG RNA 2: GGGAAUGGAUCCACAUCUACGAAUUCGUACCAUAGAGACGUUAUCCACUCACCGAGAUCGGAAGAGCACACGU | 50 ± 7 |
| target 1 insC 3' of 11,insU 3' of 1 (mixed) RNA 1: CACCCGUGCAAAAAUGCAGGGGUCUAAAACUGAGCGGAUAACCUCUCUAUGG RNA 2: GGGAAUGGAUCCACAUCUACGAAUUCGUACCAUAGAGAGGUCUAUCCGCUCAUCCGAGAUCGGAAGAGCACACGU | 35 ± 8 |
| target 1 insG 3' of 11,insC 3' of 9 (mixed) RNA 1: CACCCGUGCAAAAAUGCAGGGGUCUAAAACUGAGCGGAUAACCUCUCUAUGG RNA 2: GGGAAUGGAUCCACAUCUACGAAUUCGUACCAUAGAGAGGUGUACUCCGCUCACCGAGAUCGGAAGAGCACACGU | 31.4 ± 2.2 |
| target 1 A1G,C4A (mixed) RNA 1: CACCCGUGCAAAAAUGCAGGGGUCUAAAACUGAGCGGAUAACCUCUCUAUGG RNA 2: GGGAAUGGAUCCACAUCUACGAAUUCGUACCAUAGAGAGGUUAUCCGAUCGCCGAGAUCGGAAGAGCACACGU | 4.5 ± 0.4 |
| target 1 C4G,G12U (mixed) RNA 1: CACCCGUGCAAAAAUGCAGGGGUCUAAAACUGAGCGGAUAACCUCUCUAUGG RNA 2: GGGAAUGGAUCCACAUCUACGAAUUCGUACCAUAGAGAGUUUAUCCGGUCACCGAGAUCGGAAGAGCACACGU | 9.5 ± 1.6 |
| target 1 insC 3' of 12,insU 3' of 2 (mixed) RNA 1: CACCCGUGCAAAAAUGCAGGGGUCUAAAACUGAGCGGAUAACCUCUCUAUGG RNA 2: GGGAAUGGAUCCACAUCUACGAAUUCGUACCAUAGAGAGGCUUAUCCGCUCUACCGAGAUCGGAAGAGCACACGU | 12.2 ± 0.8 |
| target 1 insU 3' of 18,insU 3' of 6 (mixed) RNA 1: CACCCGUGCAAAAAUGCAGGGGUCUAAAACUGAGCGGAUAACCUCUCUAUGG RNA 2: GGGAAUGGAUCCACAUCUACGAAUUCGUACCAUAUGAGAGGUUAUCCUGCUCACCGAGAUCGGAAGAGCACACGU | 40.4 ± 2.6 |
| target 1 insU 3' of 9,insC 3' of 5 (mixed) RNA 1: CACCCGUGCAAAAAUGCAGGGGUCUAAAACUGAGCGGAUAACCUCUCUAUGG RNA 2: GGGAAUGGAUCCACAUCUACGAAUUCGUACCAUAGAGAGGUUAUUCCGCCUCACCGAGAUCGGAAGAGCACACGU | 12.9 ± 1.3 |
| target 1 insC 3' of 11,insG 3' of 1 (mixed) RNA 1: CACCCGUGCAAAAAUGCAGGGGUCUAAAACUGAGCGGAUAACCUCUCUAUGG RNA 2: GGGAAUGGAUCCACAUCUACGAAUUCGUACCAUAGAGAGGUCUAUCCGCUCAGCCGAGAUCGGAAGAGCACACGU | 35 ± 9 |
| target 1 insC 3' of 9,insU 3' of 5 (mixed) RNA 1: CACCCGUGCAAAAAUGCAGGGGUCUAAAACUGAGCGGAUAACCUCUCUAUGG RNA 2: GGGAAUGGAUCCACAUCUACGAAUUCGUACCAUAGAGAGGUUACUCCGUCUCACCGAGAUCGGAAGAGCACACGU | 7.39 ± 0.32 |
| target 1 insC 3' of 11,insC 3' of 11 (mixed) RNA 1: CACCCGUGCAAAAAUGCAGGGGUCUAAAACUGAGCGGAUAACCUCUCUAUGG RNA 2: GGGAAUGGAUCCACAUCUACGAAUUCGUACCAUAGAGAGGUCCUAUCCGCUCACCGAGAUCGGAAGAGCACACGU | 35 ± 7 |
| target 1 insC 3' of 11,insC 3' of 1 (mixed) RNA 1: CACCCGUGCAAAAAUGCAGGGGUCUAAAACUGAGCGGAUAACCUCUCUAUGG RNA 2: GGGAAUGGAUCCACAUCUACGAAUUCGUACCAUAGAGAGGUCUAUCCGCUCACCCGAGAUCGGAAGAGCACACGU | 26.2 ± 1.7 |
| target 1 C2G,A9G (mixed) RNA 1: CACCCGUGCAAAAAUGCAGGGGUCUAAAACUGAGCGGAUAACCUCUCUAUGG RNA 2: GGGAAUGGAUCCACAUCUACGAAUUCGUACCAUAGAGAGGUUGUCCGCUGACCGAGAUCGGAAGAGCACACGU | 9.1 ± 0.4 |
| target 1 U10A,A20C (mixed) RNA 1: CACCCGUGCAAAAAUGCAGGGGUCUAAAACUGAGCGGAUAACCUCUCUAUGG RNA 2: GGGAAUGGAUCCACAUCUACGAAUUCGUACCCUAGAGAGGUAAUCCGCUCACCGAGAUCGGAAGAGCACACGU | 48 ± 4 |
| target 1 G12A,C22A (mixed) RNA 1: CACCCGUGCAAAAAUGCAGGGGUCUAAAACUGAGCGGAUAACCUCUCUAUGG RNA 2: GGGAAUGGAUCCACAUCUACGAAUUCGUAACAUAGAGAGAUUAUCCGCUCACCGAGAUCGGAAGAGCACACGU | 13 ± 0.9 |
| target 1 insG 3' of 19,insA 3' of 17 (mixed) RNA 1: CACCCGUGCAAAAAUGCAGGGGUCUAAAACUGAGCGGAUAACCUCUCUAUGG RNA 2: GGGAAUGGAUCCACAUCUACGAAUUCGUACCAUGAGAAGAGGUUAUCCGCUCACCGAGAUCGGAAGAGCACACGU | 73 ± 12 |
| target 1 insC 3' of 18,insG 3' of 14 (mixed) RNA 1: CACCCGUGCAAAAAUGCAGGGGUCUAAAACUGAGCGGAUAACCUCUCUAUGG RNA 2: GGGAAUGGAUCCACAUCUACGAAUUCGUACCAUACGAGAGGGUUAUCCGCUCACCGAGAUCGGAAGAGCACACGU | 47.4 ± 3 |
| target 1 C7U,U11A (mixed) RNA 1: CACCCGUGCAAAAAUGCAGGGGUCUAAAACUGAGCGGAUAACCUCUCUAUGG RNA 2: GGGAAUGGAUCCACAUCUACGAAUUCGUACCAUAGAGAGGAUAUUCGCUCACCGAGAUCGGAAGAGCACACGU | 32.7 ± 2.9 |
| target 1 insA 3' of 10,insA 3' of 5 (mixed) RNA 1: CACCCGUGCAAAAAUGCAGGGGUCUAAAACUGAGCGGAUAACCUCUCUAUGG RNA 2: GGGAAUGGAUCCACAUCUACGAAUUCGUACCAUAGAGAGGUUAAUCCGACUCACCGAGAUCGGAAGAGCACACGU | 5.79 ± 0.32 |
| target 1 insG 3' of 14,insA 3' of 10 (mixed) RNA 1: CACCCGUGCAAAAAUGCAGGGGUCUAAAACUGAGCGGAUAACCUCUCUAUGG RNA 2: GGGAAUGGAUCCACAUCUACGAAUUCGUACCAUAGAGAGGGUUAAUCCGCUCACCGAGAUCGGAAGAGCACACGU | 30.3 ± 2.3 |
| target 1 G5U,A9G (mixed) RNA 1: CACCCGUGCAAAAAUGCAGGGGUCUAAAACUGAGCGGAUAACCUCUCUAUGG RNA 2: GGGAAUGGAUCCACAUCUACGAAUUCGUACCAUAGAGAGGUUGUCCUCUCACCGAGAUCGGAAGAGCACACGU | 27.2 ± 1.8 |
| target 1 insC 3' of 8,insC 3' of 8 (mixed) RNA 1: CACCCGUGCAAAAAUGCAGGGGUCUAAAACUGAGCGGAUAACCUCUCUAUGG RNA 2: GGGAAUGGAUCCACAUCUACGAAUUCGUACCAUAGAGAGGUUAUCCCCGCUCACCGAGAUCGGAAGAGCACACGU | 14.5 ± 0.7 |
| target 1 del5,del8 (mixed) RNA 1: CACCCGUGCAAAAAUGCAGGGGUCUAAAACUGAGCGGAUAACCUCUCUAUGG RNA 2: GGGAAUGGAUCCACAUCUACGAAUUCGUACCAUAGAGAGGUUACCCUCACCGAGAUCGGAAGAGCACACGU | 18 ± 0.8 |
